Measured values: US20250262297A1, “ALLERGY ANTIGEN AND EPITOPE THEREOF” (HOYU CO., LTD., priority 2017, published 2025)

B1: guanosine nucleotide diphosphate dissociation inhibitor 2 (protein)
chain: MDEEYDVIVLGTGLKECILSGLLSVDGLKVLHMDRNDYYGGESTSLNLIQLWKRFRGDDKPPPHLGASRDYNIDMNPKFIMANGNLVRVLIHTDVTKYLSFKAVDGSFVFNKGKVHKVPANDMEALKSPLMGLFEKRRARKFFIYVQNYNESDPKTHEGMDLTRVTTKELIAKYGLDDNTIDFIGHALALHSDDRYLAEPALDTVKRMKLYAESLARFQGGSPYIYPLYGLGELPQAFARLSAVYGGTYMLNKPECKVEFDEEGKVVGVTSEGETAKCKKVVCDPSYLPGKVRKVGRVARAIAIMSHPIPSTDDSHSVQIILPQKQLGRKSDMYLFCCSYTHNVAPKGKFIAFVSTEAETDQPAIELKPGIDLLGPVDEIFFDIYDRYEPVNEPTLDNCFVSTSYDATTHFESTVDDVLNMYTLITGKVIDLSVDLSAASAAEE
modifications: Glycine max
B2: hypothetical protein GLYMA_10G028300 (protein)
chain: ETEVEEEDPELVTCKHQCQQPQQYTEGDKRVCLQRCDRYHRMKQEREKQIQEETREKKEEESREREEEQQEQHEEQDENPYIFEEDKDFETRVETEGGRIRVLKKFTEKSKLLQGIENFRLAILEARAHTFVSPRHFDSEVVFFNIKGRAVLGLVSESETEKITLEPGDMIHIPAGTPLYIVNRDENDKLFLAMLHIPVSVSTPGKFEEFFGPGGRDPESVLSAFSWNVLQAALQTPKGKLEKLFDQQNEGSIFAISREQVRALAPTKKSSWWPFGGESKPQFNIFSKRPTISNGYGRLTEVGPDDDEKSWLQRLNLMLTFTNITQRSMSTIHYNSHATKIALVIDGRGHLQISCPHMSSRSSHSKHDKSSPSYHRISSDLKPGMVFVVPPGHPFVTIASNKENLLMICFEVNARDNKKFTFAGKDNIVSSLDNVAKELAFNYPSEMVNGVFDRKESFFFPFELPREERGRRADA
B3: sucrose binding protein homolog S-64 (protein)
chain: ETEVEEDPELVTCKHQCQQQRQYTESDKRTCLQQCDSMKQEREKQVEEETREKEEEHQEQHEEEQDQNPYVFEEDKDFSTRVETEGGSIRVLKKFTEKSKLLQGNENFRLAILEARAHTFVSPRHFDSEVVLFNIKGRAVLGLVRESETEKITLEPGDMIHIPAGTPLYIVNRDENEKLLLAMLHIPVSTPGKFEEFFGPGGRDPESVLSAFSWNVLQAALQTPKGKLERLFNQQNEGSIFKISRERVRALAPTKKSSWWPFGGESKAQFNIFSKRPTFSNGYGRLTEVGPDDEKSWLQRLNLMLTFTNITQRSMSTIHYNSHATKIALVMDGRGHLQISCPHMSSRSDSKHDKSSPSYHRISADLKPGMVFVVPPGHPFVTIASNKENLLIICFEVNVRDNKKFTFAGKDNIVSSLDNVAKELAFNYPSEMVNGVFERKESLFFPFELPSEERGRRAVA
B4: succinyl-CoA ligase [ADP-forming] subunit beta, mitochondrial (protein)
chain: MVRGLLNKLVSRSLSVAGKWQHNQLRRLNIHEYQGAELMSKHGVNVPRGVAVSSVEEARKVIKDLFPNENELVVKSQILAGGRGLGTFKSGLKGGVHIVKTDQVEDIAGKMLGQILVTKQTGPQGKIVSKVYLCEKLSLVNEMYFAITLDRTSAGPIIIACSKGGTSIEDLAEKFPDMIIKVPVDVFEGITDEGAAKVVDGLALKVADRNKSIEQVKNLYKLFVDCDCTLLEINPIAETADNQLVAADAKLNFDDNAAYRQKEIFSLRDTTQEDPREVTAAKADLNYIGLDGEIGCMVNGAGLAMATMDIIKLHGGTPANFLDVGGNASENQVVEAFKILTADDKVKAILVNIFGGIMKCDVIASGIVNAAKEVALKVPVVVRLEGTNVDQGKRILKESGMALITAEDLDDAAQKAVKAAYK
modifications: Glycine max
B5: endoplasmin homolog isoform X2 (protein)
chain: MRKWTVASALLLLSLLFLFADQGRKFQANAEGDSDELVDPPKVEDKIGAVPHGLSTDSDVVKREAESISKRSLRSNAEKFEFQAEVSRLMDIIINSLYSNKDIFLRELISNASDALDKIRFLSLTDKEVLGEGDNTKLDIQIKLDKEKKILSIRDRGIGMTKEDLIKNLGTIAKSGTSAFVEKMQTSGDLNLIGQFGVGFYSVYLVADYVEVISKNNDDKQYVWESKADGAFAISEDTWNEPLGRGTEIRLHLKEEAGEYLEESKLKELVKRYSEFINFPIYIWASKEVDVEVPADEDDSSDEEDSSESSSKEESEDEDADKSEDEEKKPKTKTVKETTYEWELLNDVKAIWLRNPKEVTEEEYTKFYHSLAKDFSDEKPLAWSHFTAEGDVEFKAVLFVPPKAPQDLYESYYNANKSNLKLYVRRVFISDEFNELLPKYLNFLLGLVDSDTLPLNVSREMLQQHSSLKTIKKKLIRKALDMIRRIADEDPDESTDKEKKDASSDNDEKKGQYSKFWNEFGKSIKLGIIEDATNRNRLAKLLRFESTKSEGKLTSLDQYISRMKTGQKDIFYITGTSKEQLENSPFLERLKKKNFEVIFFTDPVDEYLMQYLMDYEDKKFQNVSKEGLKLGKDSKDKELKESFKDLTKWWKTALSKDNVDDVKISNRLDNTPCVVVTSKFGWSANMERIMQSQTLSDASKQAYMRGKRVLEINPRHPIIKELRERVVKNPEDEGVKHTAQLMYQTALFESGFLLDDPKDFASRIYDSVKTSLDISPEATVEEEDDTEVEAESDAKEDSKPETDAVNDDNDVKDEL
modifications: Glycine max
B6: polyadenylate-binding protein 8 isoform X3 (protein)
chain: MAQVLENPTIDAAASGANPSLTTISLYVGDLHHDVNDPQLYDLFNQVAQVVSVRICRDVATQQSLGYGYVNFSNAHDAAKAIDVLNFTPLNGKIIRIMYSIRDPSARKSGAANVFIKNLDKAIDHKALYDTFSAFGNILSCKVATDASGQSKGHGFVQFESEESAQNAIDKLNGMLINDKQVFVGPFLRKQDRESALSGTKFNNVFVKNLLDSMTEADLERIFGEYGAITSAVVMRDVDGKSKGFGFVNFANVDDAAKAVEALNGKNFDGKEWYVGKAQKKSERELELKGQHEQITKETVDKYHGTNLYIKNLDDSVGDEELMELFSEFGTITSCKVMRDPNGISRGSGFVSFSIAEGATRALGEMNGKMVAGKPLYVALAQRKEDRRARLQAQFSQSRPAAITPNVSPRMPLYPLGAPAIGQQFLYGQAAPATIPQHFVPGMRPGGAPNFYVPLVQQGQQGQRPGGHRGSGPMQQLQQPLPLMHQQMLPRGHVYRYPSGSNMQNIQLAGVPGGMVTYGIGQQMPTQALASALANATPEQQRTMLGEALYPLVDKLEHEAAAKVTGMLLEMDQPEVLHLIESPDALKAKVVEAMDVLKKVTQQQSNSPADQLASLSLNDNVES
B7: V-type proton ATPase subunit B 2 (protein)
chain: MGVAQNIPDAEEGTLEIGMEYRTVSGVAGPLVILDKVKGPKFQEIVNIRLGDGTTRRGQVLEVDGEKAVVQVFEGTSGIDNKFTTVQFTGEVLKTPVSLDMLGRIFNGSGKPIDNGPPILPEAYLDISGSSINPSERTYPEEMIQTGISTIDVMNSIARGQKIPLFSAAGLPHNEIAAQICRQAGLVKRLEKSDNLLEGGGEEDNFAIVFAAMGVNMETAQFFKRDFEENGSMERVTLFLNLANDPTIERIITPRIALTTAEYLAYECGKHVLVILTDMSSYADALREVSAAREEVPGRRGYPGYMYTDLATIYERAGRIEGRKGSITQIPILTMPNDDITHPTPDLTGYITEGQIYIDRQLYNRQIYPPINVLPSLSRLMKSAIGEGMTRKDHSDVSNQLYANYAIGKDVQAMKAVVGEEALSSEDLLYLEFLEKFERKFVAQGAYDTRNIFQSLDLAWTLLRIFPRELLHRIPAKTLDQFYSRDASN
modifications: Glycine max
B8: protein disulfide isomerase-like protein precursor (protein)
chain: MPKFFHSIFRGTMAGRVSTCFFFVFALSLLLPFQISAEESSEKEFVLTLDHSNFHDTVSKHDFIVVEFYAPWCGHCKKLAPEYEKAASILSSHDPPVVLAKIDANEEKNKDLASQYDVRGYPTIKILRNGGKNVQEYKGPREADGIVDYLKKQSGPASTEIKSADEATAFIGENKVAIVGVFPKFSGEEFDNFSALAEKLRSDYDFGHTLNAKHLPRGESSVSGPVVRLFKPFDELFVDFQDFNVEALEKFVEESSTPVVTVFNNDPSNHPFVAKFFNSPNAKAMLFINFTAEGAESFKSKYREAAEQHKQQGVSFLVGDVESSQGAFQYFGLKEEQVPLIIIQHNDGKKFFKPNLEADHIPTWLKAYKDGNVAPFVKSEPIPEANDEPVKVVVGNSLEDIVFKSGKNVLLEFYAPWCGHCKQLAPILDEVAISYQSDADVVIAKLDATANDIPSETFDVQGYPTVYFRSASGKLSQYEGGRTKEDIIEFIEKNRDKPAQQEQGQDKPAQQEQGQDEQEKGKDEL
modifications: Glycine max
notes: spot also identified as protein disulfide-isomerase

System: IgE antibodies from soybean-allergic patients
Assay: Immunoblotting of two-dimensional electrophoresis pattern of soybean proteins with patient serum
Type: binding, human
Settings: spot in 2D electrophoresis gel of soybean proteins; patient serum compared with healthy subject serum
Description: Transfer to membrane was done using the following transfer system and transfer buffer. • Transfer system: XCell SureLock Mini-Cell and XCell II Blot Module (produced by Life Technologies) • Transfer buffer: NuPAGE Transfer Buffer (X20) (produced by Life Technologies), used in a form diluted 20-fold with milliQ water.
To be specific, proteins in the two-dimensional electrophoresis gels were transferred to a membrane (PVDF membrane) according to the following procedure. • (1) The PVDF membrane was immersed in 100% methanol followed by milliQ water, and then moved into the transfer buffer to hydrophilize the PVDF membrane. • (2) After sponge, filter paper, the gels treated by second-dimensional SDS-PAGE, the hydrophilized PVDF membrane, filter paper, and sponge were put in place in this order, the transfer system was energized at a constant voltage of 30 V for one hour.
Immunoblotting of the membrane was carried out using, as a primary antibody, a serum sample from a patient with a soybean allergy or a serum sample from a healthy subject.
Immunoblotting of the membrane was carried out according to the following procedure. • (1) The transferred membrane was shaken in a 5% skim milk/PBST solution (a PBS buffer containing 0.3% Tween 20 nonionic surfactant) at room temperature for one hour. • (2) The membrane was left to stand in a solution of 3% primary antibody serum in 5% skim milk/PBST at room temperature for one hour. • (3) The membrane was washed with a PBST solution (5 min.×3 times). • (4) The membrane was left to stand in a 1:2500 dilution of the secondary antibody, anti-human IgE-HRP (horseradish peroxidase), with a 3% skim milk/PBST solution at room temperature for one hour. • (5) The membrane was washed with a PBST solution (5 min.×3 times). • (6) The membrane was left to stand in Pierce Western Blotting Substrate Plus (produced by Thermo Fisher Scientific) for 5 minutes.
The membrane obtained through the foregoing series of treatments was subjected to fluorescent image scanning on Typhoon 9400 (produced by GE).
The immunoblots obtained with the serum from the soybean-allergic patient were compared with those obtained with the control serum from the healthy subject.

| specific binding to IgE antibodies from soybean-allergic patients | Molecule |
| --- | --- |
| specific binding | B1 |
| specific binding | B2 |
| specific binding | B3 |
| specific binding | B4 |
| specific binding | B5 |
| specific binding | B6 |
| specific binding | B7 |
| specific binding | B8 |
